Measured values published in US20240400614A1, “CLEAVABLE PEPTIDES AND METHODS OF USE THEREOF” (Bright Peak Therapeutics AG, priority 2023, published 2024).
Square brackets hold non-standard residues; d marks the D form. Ends that are not written are not given here. Tyr(3-NO2) = N[C@@H](Cc1ccc(O)c([N+](=O)[O-])c1)C(=O)O; 2Abz = Nc1ccccc1C(=O)O

Key:
Format in all cases: biochemical
MMP-9 = biological target: T1, MMP-9 (Homo sapiens, UniProt P14780); assay: FRET peptide cleavage efficiency with MMP-9 (standard pH 7.5; also pH 6.5)
T1 construct: purchased SIGMA PF024
T1 sequence (P14780 94-707): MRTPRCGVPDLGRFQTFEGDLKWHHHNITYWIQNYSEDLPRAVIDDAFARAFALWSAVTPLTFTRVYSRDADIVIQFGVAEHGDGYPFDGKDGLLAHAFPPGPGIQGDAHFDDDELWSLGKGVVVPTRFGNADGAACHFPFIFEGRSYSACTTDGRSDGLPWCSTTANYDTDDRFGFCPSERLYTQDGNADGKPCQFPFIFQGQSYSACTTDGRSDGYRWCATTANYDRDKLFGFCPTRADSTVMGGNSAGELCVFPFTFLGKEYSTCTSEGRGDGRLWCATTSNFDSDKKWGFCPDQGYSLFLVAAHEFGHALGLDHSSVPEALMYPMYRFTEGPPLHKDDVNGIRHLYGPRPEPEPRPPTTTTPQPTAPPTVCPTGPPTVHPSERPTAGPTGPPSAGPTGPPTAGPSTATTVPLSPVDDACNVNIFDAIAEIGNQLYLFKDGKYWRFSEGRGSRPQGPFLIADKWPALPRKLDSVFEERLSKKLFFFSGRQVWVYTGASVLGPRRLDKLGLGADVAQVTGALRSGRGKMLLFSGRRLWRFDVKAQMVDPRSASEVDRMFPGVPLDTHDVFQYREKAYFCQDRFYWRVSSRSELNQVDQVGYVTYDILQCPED

matriptase = biological target: T2, matriptase (Homo sapiens, UniProt Q9Y5Y6); assay: FRET peptide cleavage efficiency with matriptase
T2 construct: purchased R&D Systems 3946-SEB
T2 sequence (Q9Y5Y6 615-855 limits assumed): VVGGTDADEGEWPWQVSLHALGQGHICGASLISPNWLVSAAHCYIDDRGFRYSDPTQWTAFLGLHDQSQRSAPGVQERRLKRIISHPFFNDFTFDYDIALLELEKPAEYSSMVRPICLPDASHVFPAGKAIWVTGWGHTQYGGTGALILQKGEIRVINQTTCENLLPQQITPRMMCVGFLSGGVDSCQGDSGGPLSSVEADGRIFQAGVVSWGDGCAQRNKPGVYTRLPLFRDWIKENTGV

MMP-2 = biological target: T3, MMP-2 (Homo sapiens, UniProt P08253); assay: FRET peptide cleavage efficiency with MMP-2
T3 construct: purchased SIGMA PF023
T3 sequence (P08253 110-660): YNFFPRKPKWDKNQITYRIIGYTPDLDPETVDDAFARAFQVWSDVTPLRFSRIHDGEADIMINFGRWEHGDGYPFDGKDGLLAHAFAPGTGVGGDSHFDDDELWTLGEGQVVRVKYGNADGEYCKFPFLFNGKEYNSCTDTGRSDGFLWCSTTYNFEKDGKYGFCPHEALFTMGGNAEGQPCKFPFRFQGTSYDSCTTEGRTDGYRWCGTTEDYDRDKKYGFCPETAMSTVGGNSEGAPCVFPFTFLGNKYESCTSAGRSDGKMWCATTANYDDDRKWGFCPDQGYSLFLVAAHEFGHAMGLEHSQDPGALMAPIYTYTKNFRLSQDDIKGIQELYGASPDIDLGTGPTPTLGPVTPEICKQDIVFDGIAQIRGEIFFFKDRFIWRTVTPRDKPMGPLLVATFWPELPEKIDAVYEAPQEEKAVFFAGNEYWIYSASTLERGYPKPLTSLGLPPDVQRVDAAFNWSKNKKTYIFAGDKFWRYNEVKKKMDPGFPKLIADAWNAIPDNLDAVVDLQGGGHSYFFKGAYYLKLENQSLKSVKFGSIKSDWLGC

uPA = uPA (Homo sapiens, UniProt P00749); assay: FRET peptide cleavage efficiency with uPA
MMP-7 = biological target: T4, MMP-7 (Homo sapiens, UniProt P09237); assay: FRET peptide cleavage efficiency with MMP-7 (standard pH 7.5; also pH 6.5)
T4 construct: purchased SIGMA CC1059
T4 sequence (P09237 95-267): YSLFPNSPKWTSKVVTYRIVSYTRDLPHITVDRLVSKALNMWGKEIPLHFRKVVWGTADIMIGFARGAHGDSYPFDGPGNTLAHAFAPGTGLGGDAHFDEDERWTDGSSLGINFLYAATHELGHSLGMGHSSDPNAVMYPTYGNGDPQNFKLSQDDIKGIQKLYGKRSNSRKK

[1] = t = 15 min, 200 uM linker, 1 ug/ml protease, 37° C., buffer B pH 9.0
[2] = t = 60 min, 200 uM linker, 1 ug/ml protease, 37° C., buffer B pH 9.0
[3] = 200 uM linker, 1 ug/ml protease, 37° C., buffer B pH 9.0
[4] = t = 15 min, 200 uM linker, 1 ug/ml protease, 37° C., buffer C pH 7.5
[5] = t = 60 min, 200 uM linker, 1 ug/ml protease, 37° C., buffer C pH 7.5
[6] = t = 120 min, 200 uM linker, 1 ug/ml protease, 37° C., buffer C pH 7.5
[7] = t = 15 min, 200 uM linker, 1 ug/ml protease, 37° C., buffer A pH 8.5
[8] = t = 60 min, 200 uM linker, 1 ug/ml protease, 37° C., buffer A pH 8.5
[9] = t = 120 min, 200 uM linker, 1 ug/ml protease, 37° C., buffer A pH 8.5
[10] = t = 15 min, standard conditions (Table 8)
[11] = t = 60 min, standard conditions (Table 8)
[12] = t = 120 min, standard conditions (Table 8)

% cleavage MMP-9 t = 15 min (MMP-9; t = 15 min (Table 9)) [%] | % cleavage MMP-9 t = 60 min (MMP-9; t = 60 min (Table 9)) [%] | % cleavage MMP-9 t = 120 min (MMP-9; t = 120 min (Table 9)) [%] | % cleavage Matriptase t = 15 min (matriptase; [1]) [%] | % cleavage Matriptase t = 60 min (matriptase; [2]) [%] | % cleavage Matriptase t = 120 min (matriptase; [3]) [%] | % cleavage MMP-2 t = 15 min (MMP-2; t = 15 min (Table 9)) [%] | % cleavage MMP-2 t = 15 min (MMP-2; [4]) [%] | % cleavage MMP-2 t = 60 min (MMP-2; t = 60 min (Table 9)) [%] | % cleavage MMP-2 t = 60 min (MMP-2; [5]) [%] | % cleavage MMP-2 t = 120 min (MMP-2; t = 120 min (Table 9)) [%] | % cleavage MMP-2 t = 120 min (MMP-2; [6]) [%] | % cleavage uPA t = 15 min (uPA; [7]) [%] | % cleavage uPA t = 60 min (uPA; [8]) [%] | % cleavage uPA t = 120 min (uPA; [9]) [%] | % cleavage MMP-7 t = 15 min (MMP-7; t = 15 min (Table 9)) [%] | % cleavage MMP-7 t = 60 min (MMP-7; t = 60 min (Table 9)) [%] | % cleavage MMP-7 t = 120 min (MMP-7; t = 120 min (Table 9)) [%] | also measured | Sequence
98 | 99 | 100 | 97 | 95 | 95 | 91 | 93 | 96 | 97 | 100 | 97 | 0 | 2 | 7 | 25 | 79 | 100 | % cleavage Matriptase t = 15 min (matriptase; pH 6.5, t = 15 min (Table 7)): 70%; % cleavage Matriptase t = 60 min (matriptase; pH 6.5, t = 60 min (Table 7)): 100%; % cleavage Matriptase t = 15 min (matriptase; pH 7.5, t = 15 min (Table 7)): 100%; % cleavage Matriptase t = 60 min (matriptase; pH 7.5, t = 60 min (Table 7)): 100%; % cleavage MMP-2 t = 15 min (MMP-2; pH 6.5, t = 15 min (Table 7)): 100%; % cleavage MMP-2 t = 60 min (MMP-2; pH 6.5, t = 60 min (Table 7)): 100%; % cleavage MMP-2 t = 15 min (MMP-2; pH 7.5, t = 15 min (Table 7)): 100%; % cleavage MMP-2 t = 60 min (MMP-2; pH 7.5, t = 60 min (Table 7)): 100%; % cleavage uPA t = 60 min (uPA; pH 6.5, t = 60 min (Table 7)): 0%; % cleavage uPA t = 120 min (uPA; pH 6.5, t = 120 min (Table 7)): 0%; % cleavage uPA t = 60 min (uPA; pH 7.5, t = 60 min (Table 7)): 0%; % cleavage uPA t = 120 min (uPA; pH 7.5, t = 120 min (Table 7)): 0% | SGRVLRKAGPANLVG ([2Abz]SGRVLRKAGPANLVG[Tyr(3-NO2)]-NH2) [LNK014]
39 | 100 | 100 | 76 | 100 | 100 | 77 | 77 | 100 | 100 | 100 | 100 | 67 | 100 | 100 | 0 | 0 | 0 |  | RGRRSGRAANLVRPLGYFGKL ([2Abz]RGRRSGRAANLVRPLGYFGKL[Tyr(3-NO2)]-NH2) [LNK059]
53 | 100 | 100 |  |  |  | 81 |  | 100 |  | 100 |  |  |  |  | 20 | 72 | 95 | % cleavage MMP-9 t = 15 min (MMP-9; [10]): 53%; % cleavage MMP-9 t = 60 min (MMP-9; [11]): 100%; % cleavage MMP-9 t = 120 min (MMP-9; [12]): 100%; % cleavage Matriptase t = 15 min (matriptase; [10]): 81%; % cleavage Matriptase t = 60 min (matriptase; [11]): 100%; % cleavage Matriptase t = 120 min (matriptase; standard conditions (Table 8)): 100%; % cleavage MMP-2 t = 60 min (MMP-2; [11]): 100%; % cleavage MMP-2 t = 120 min (MMP-2; [12]): 100%; % vcleavage uPA t = 15 min (uPA; [10]): 0%; % cleavage uPA t = 60 min (uPA; [11]): 0%; % cleavage uPA t = 120 min (uPA; [12]): 0%; % cleavage MMP-7 t = 15 min (MMP-7; [10]): 20%; % cleavage MMP-7 t = 60 min (MMP-7; [11]): 72%; % cleavage MMP-7 t = 120 min (MMP-7; [12]): 95% | RQRKVANLVG ([2Abz]RQRKVANLVG[Tyr(3-NO2)]-NH2) [LNK032]
32 | 100 | 100 | 90 | 100 | 100 | 76 | 76 | 100 | 100 | 100 | 100 | 2 | 11 | 25 | 0 | 0 | 0 |  | RGRRAANLVRPLGYFGKL ([2Abz]RGRRAANLVRPLGYFGKL[Tyr(3-NO2)]-NH2) [LNK060]
